B1: Hairpin Ribozyme (parent)
chain: GUCCUCUUUCACGUGCGCGUGAAAGAGAGAAGUGAACCAGAGAAACACACGUUGUGGUAUAUUACCUGGUA

Here are results for 167 variants from the RNAGym collection of RNA variant scans (doi:10.7554/elife.80360).

The variants in this data set derive from B1. The data set can be described thus: self-cleavage, relative activity (ratio to wild type); higher = more cleavage; co-transcriptional.
With C18U G42U, the self-cleavage stood at 0.407.
For U2C A61C, the self-cleavage was 0.0902.
The figure for U14G A61G is 0.0735.
Then A11U U53G, with 0.69; and A28C A47G, with 0.0559; and C16U C18G, with 0.873.
Then A43U G69C, with 0.119; and A26C C38A, with 0.163.
As to C6U U62C, the self-cleavage came to 0.188.
Consider G25U U62A, for which the self-cleavage was 0.114.
The figure for U2A C3A is 0.401.
G32U G56C: the self-cleavage was found to be 0.152.
The figure for G19U C65U is 0.306; for U5C A26U it is 0.505; for U2A G57U it is 0.109.
Then U7G A64U, with 0.143; and A41G C65U, with 1.05; and G19U U20G, with 0.707.
Then A23U U60A, with 0.819; and G27A G57A, with 0.145; and C10G G15A, with 0.624.
For U9G C50G, the self-cleavage turned out to be 0.208.
Then U2G G69C, with 0.0755.
The figure for U14G G54A is 0.439; for U67C G68C it is 0.178; for C48A U52G it is 0.131.
The figure for G29C A61G is 0.135.
Regarding U2C G25U, the self-cleavage amounted to 0.134.
The figure for C46G U52A is 0.189; for G1A A23G it is 0.123.
Take C4A U60A: the self-cleavage came out at 0.197.
Then A35C C65A, with 1.08; and U9G A64G, with 0.478.
Then A41U U53G, with 1.16; and A45G C66A, with 0.176.
The figure for A45C A61G is 0.105.
For the variant A41U A43U, the self-cleavage amounted to 0.187.
Then U63G A64U, with 0.157.
The figure for G13C A23U is 0.491; for A11U U63A it is 0.22; for C10A G27C it is 0.159.
The figure for U7C C16U is 1.
Take A44C G56C: the self-cleavage is 0.0706.
The figure for G21U G27U is 0.253; for U5G A47G it is 0.123.
With U8C G32U, the self-cleavage amounted to 0.0859.
Consider G19C C46U, for which the self-cleavage was found to be 0.229.
The figure for A26G G69C is 0.403; for G54A C65U it is 0.102; for A24U U70G it is 0.533.
The figure for C3U U52G is 0.446.
The figure for A24G G56C is 0.14; for G25A C38G it is 0.252.
In the case of C12U U52A, the self-cleavage was 0.92.
Take A49U A59C: the self-cleavage stood at 0.179.
The figure for C6G G21U is 0.181; for A22C A30C it is 0.16.
As for A45U G69U, the self-cleavage amounted to 0.197.
Then U53C U67C, with 0.279; and A30U U70C, with 0.123; and A35U U55G, with 0.281.
Turning to G15U G32C, the self-cleavage came to 0.122.
As for G25C A31G, the self-cleavage came to 0.153.
Turning to C4G A30G, the self-cleavage turned out to be 0.069.
The figure for G27C A45C is 0.11; for C6U U70A it is 0.699; for U7G G19A it is 0.618.
The figure for C37A C48U is 0.0819; for G27C A59C it is 0.104.
Turning to C6G A39C, the self-cleavage stood at 0.299.
Then U62G U70A, with 0.163.
Then G21C C37A, with 0.192; and G15U C66G, with 0.183.
In the case of C3A G32U, the self-cleavage was determined as 0.0959.
Turning to U9C U62A, the self-cleavage is 0.238.
For the variant C38G G42A, the self-cleavage was found to be 0.103.
Then U2G A24G, with 0.293; and A28C U63C, with 0.251; and G1A A24G, with 0.159.
Then U2G C66G, with 0.124; and A49C A64U, with 0.178.
Then G34A U58G, with 1.36; and A35C U62A, with 0.226; and C6U G21C, with 0.597.
As to U2A G15C, the self-cleavage is 0.391.
Then A24G G34U, with 0.956; and A22U U53G, with 0.817.
Then A26C G56A, with 0.163; and G21A A59U, with 0.142; and A30G A61C, with 0.109.
Then A30C U33C, with 0.1.
On to A31U G57A, for which the self-cleavage is 0.169.
Then U9G A28G, with 1.01; and U9C C66A, with 0.248; and C4A C6U, with 0.143.
In the case of G29U G54A, the self-cleavage amounted to 0.104.
The figure for A22C C48A is 0.291.
Take G1C C48U: the self-cleavage turned out to be 0.189.
Then C16A G32A, with 0.121.
Then G17U A28G, with 1.02; and G1A C12U, with 0.266.
Then G42U G56U, with 0.169; and G19C G27C, with 0.133; and G19A A71U, with 0.648.
On to C4G U9A, for which the self-cleavage came to 0.162.
The figure for U9C A49U is 0.0445; for U9C A31G it is 0.592; for G29A G68A it is 0.125.
Then C10G G68A, with 0.172; and A35G A43C, with 0.118; and G19U A23G, with 0.932.
Then C16G A31C, with 0.0855; and A28C A43U, with 0.148; and U5C A61G, with 0.176.
Turning to U2A G34A, the self-cleavage came out at 0.319.
The figure for A28G C50U is 0.439.
The figure for C6G A61U is 0.183; for C12G G42U it is 0.343.
Then U33C U70G, with 0.147; and U2A C6U, with 0.182; and U8C G54A, with 0.378.
In the case of C18A U33A, the self-cleavage is 0.115.
Then C50A G68C, with 0.178.
Then C3G A59C, with 0.064; and A24C G57U, with 0.14; and A28C U60A, with 0.448.
Take A11U A45U: the self-cleavage worked out at 0.255.
The figure for U7A G32C is 0.143; for C10G U67G it is 0.205; for C10G A26G it is 0.776.
The figure for G15U G29A is 0.0502; for U8A A23C it is 0.712; for G19U A44C it is 0.275.
The figure for U7C G13C is 0.518.
Turning to G17C C18G, the self-cleavage turned out to be 0.645.
The figure for A59U G68U is 0.188; for G1A U62C it is 0.133; for G34A U70C it is 1.05.
The figure for U67A is 0.229; for G34U G69A it is 0.93.
The figure for A47C C50A is 0.29; for C6U U58G it is 0.663.
With U8G G25U, the self-cleavage came out at 0.2.
Consider U2G G13A, for which the self-cleavage stood at 0.338.
The figure for U53A U70G is 0.987.
The figure for C38G G51U is 0.312; for C37A G68U it is 0.332; for C38A U55A it is 0.133.
The figure for G29U U60G is 0.17; for U55C C65G it is 0.194; for A47C U55A it is 0.195.
For C12U, the self-cleavage worked out at 0.887.
Consider U9C G42C, for which the self-cleavage stood at 0.264.
For the variant G34U A61G, the self-cleavage stood at 0.636.
The figure for C4U A24C is 0.33.
Then C3G A30U, with 0.118; and U5C U14G, with 0.385.
Then C12A G54U, with 0.53.
Take G15U C37G: the self-cleavage amounted to 0.339.
The figure for A11C C16G is 0.578.
The figure for C16U A36U is 0.804.
Then G42A C46U, with 0.0972.
As to C18G A61C, the self-cleavage was 0.201.
In the case of G19A U70G, the self-cleavage stood at 0.917.
On to G25C G56U, for which the self-cleavage amounted to 0.153.
The figure for G32C C48U is 0.169; for G17U G32U it is 0.121.
